Source: PMC2756588

Key:
Test in all cases: SPOT array
[1] = molecular target: Bem1-2, P29366; settings: median of control spots 4347
[2] = molecular target: Sho1, P40073; settings: median of control spots 1148
[3] = molecular target: Bem1-1, P29366; settings: median of control spots 4282
[4] = molecular target: T1, Bzz1-1, P38822; settings: median of control spots 4446
T1 sequence (P38822 478-572, looked up): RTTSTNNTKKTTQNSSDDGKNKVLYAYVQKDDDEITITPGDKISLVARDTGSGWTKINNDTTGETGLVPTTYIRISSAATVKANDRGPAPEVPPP

[5] = molecular target: T2, Bud14, P27637; settings: median of control spots 956
T2 sequence (P27637 247-328, looked up): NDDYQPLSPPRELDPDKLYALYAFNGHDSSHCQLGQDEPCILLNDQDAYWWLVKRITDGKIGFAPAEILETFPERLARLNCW

[6] = molecular target: T3, Myo5, Q04439; settings: median of control spots 471
T3 sequence (Q04439 1072-1160, looked up): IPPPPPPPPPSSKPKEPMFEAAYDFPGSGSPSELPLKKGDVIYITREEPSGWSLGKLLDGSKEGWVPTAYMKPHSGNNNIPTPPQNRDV

[7] = molecular target: T4, Abp1, P15891; settings: median of control spots 935
T4 sequence (P15891 535-592, looked up): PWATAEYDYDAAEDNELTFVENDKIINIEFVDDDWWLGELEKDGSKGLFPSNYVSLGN

[8] = molecular target: GST; settings: median of control spots 978
[9] = molecular target: T5, Lsb4, P32793; settings: median of control spots 397
T5 sequence (P32793 402-468, looked up): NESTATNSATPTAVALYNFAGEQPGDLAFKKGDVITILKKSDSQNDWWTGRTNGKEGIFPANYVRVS

[10] = molecular target: Rvs167, P39743; settings: median of control spots 2707
[11] = molecular target: T6, Cdc25, P04821; settings: median of control spots 969
T6 sequence (P04821 50-136, looked up): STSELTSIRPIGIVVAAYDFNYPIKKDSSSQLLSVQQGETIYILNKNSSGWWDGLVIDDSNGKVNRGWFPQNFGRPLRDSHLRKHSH

[12] = molecular target: T7, Lsb1, P53281; settings: median of control spots 388
T7 sequence (P53281 45-122, looked up): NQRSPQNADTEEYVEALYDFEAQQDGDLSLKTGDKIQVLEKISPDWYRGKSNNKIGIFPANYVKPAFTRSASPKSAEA

[13] = molecular target: T8, Boi2, P39969; settings: median of control spots 1161
T8 sequence (P39969 32-116, looked up): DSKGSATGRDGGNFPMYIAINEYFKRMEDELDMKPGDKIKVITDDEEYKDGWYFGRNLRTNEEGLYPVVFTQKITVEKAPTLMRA

[14] = molecular target: T9, Sla1-2, P32790; settings: median of control spots 712
T9 sequence (P32790 60-140, looked up): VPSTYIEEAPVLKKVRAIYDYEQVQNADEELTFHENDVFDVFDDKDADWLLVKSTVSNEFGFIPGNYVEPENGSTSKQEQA

[15] = molecular target: T10, Bzz1-2, P38822; settings: median of control spots 4538
T10 sequence (P38822 568-633, looked up): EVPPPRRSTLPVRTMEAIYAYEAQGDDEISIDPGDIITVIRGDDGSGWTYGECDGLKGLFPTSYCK

[16] = molecular target: T11, Lsb3, P43603; settings: median of control spots 406
T11 sequence (P43603 385-451, looked up): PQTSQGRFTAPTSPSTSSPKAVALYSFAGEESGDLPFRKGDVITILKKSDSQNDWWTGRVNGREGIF

[17] = molecular target: T12, Hse1, P38753; settings: median of control spots 1727
T12 sequence (P38753 208-285, looked up): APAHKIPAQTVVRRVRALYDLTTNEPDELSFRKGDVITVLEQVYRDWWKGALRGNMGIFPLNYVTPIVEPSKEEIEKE

[18] = molecular target: T13, Nbp2, Q12163; settings: median of control spots 357
T13 sequence (Q12163 103-180, looked up): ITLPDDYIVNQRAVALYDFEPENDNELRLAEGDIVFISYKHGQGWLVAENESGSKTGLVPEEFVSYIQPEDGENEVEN

[19] = molecular target: T14, Sla1-3, P32790; settings: median of control spots 5475
T14 sequence (P32790 344-424, looked up): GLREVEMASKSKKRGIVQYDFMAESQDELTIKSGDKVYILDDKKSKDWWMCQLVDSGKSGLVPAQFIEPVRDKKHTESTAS

[20] = molecular target: T15, Fus1, P11710; settings: median of control spots 1200
T15 sequence (P11710 432-512, looked up): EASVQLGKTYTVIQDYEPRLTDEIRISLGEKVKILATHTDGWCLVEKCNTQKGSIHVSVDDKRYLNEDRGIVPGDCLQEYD

[21] = molecular target: T16, Pin3, Q06449; settings: median of control spots 2171
T16 sequence (Q06449 53-122, looked up): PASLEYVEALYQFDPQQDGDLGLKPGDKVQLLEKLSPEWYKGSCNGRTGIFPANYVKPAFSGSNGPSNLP

[22] = molecular target: T17, Bbc1, P47068; settings: median of control spots 796
T17 sequence (P47068 1-78, looked up): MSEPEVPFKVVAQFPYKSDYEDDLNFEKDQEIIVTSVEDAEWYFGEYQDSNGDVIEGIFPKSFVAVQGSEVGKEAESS

[23] = molecular target: T18, Hof1, Q05080; settings: median of control spots 4086
T18 sequence (Q05080 590-669, looked up): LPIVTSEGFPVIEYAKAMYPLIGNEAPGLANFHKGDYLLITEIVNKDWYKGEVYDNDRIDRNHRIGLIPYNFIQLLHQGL

[24] = molecular target: T19, Cyk3, Q07533; settings: median of control spots 1451
T19 sequence (Q07533 1-83, looked up): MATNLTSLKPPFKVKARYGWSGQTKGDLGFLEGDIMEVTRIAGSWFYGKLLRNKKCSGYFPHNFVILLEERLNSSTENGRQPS

[25] = molecular target: Myo3, P36006; settings: median of control spots 468
[26] = molecular target: T20, Boi1, P38041; settings: median of control spots 1162
T20 sequence (P38041 1-86, looked up): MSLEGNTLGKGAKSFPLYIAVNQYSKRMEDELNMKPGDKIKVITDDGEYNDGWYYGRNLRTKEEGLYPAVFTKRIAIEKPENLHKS

[27] = molecular target: T21, Pex13, P80667; settings: median of control spots 1341
T21 sequence (P80667 295-386, looked up): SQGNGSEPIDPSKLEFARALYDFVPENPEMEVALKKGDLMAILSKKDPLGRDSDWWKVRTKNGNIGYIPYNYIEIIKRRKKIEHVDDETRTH

Bem1-2, P29366, sequence (P29366 139-227): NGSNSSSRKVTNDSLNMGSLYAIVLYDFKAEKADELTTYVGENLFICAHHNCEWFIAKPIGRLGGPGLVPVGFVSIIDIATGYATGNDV
Rvs167, P39743, sequence (P39743 419-482): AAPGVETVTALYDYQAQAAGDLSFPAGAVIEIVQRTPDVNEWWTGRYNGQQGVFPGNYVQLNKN
Sho1, P40073, sequence (P40073 287-367): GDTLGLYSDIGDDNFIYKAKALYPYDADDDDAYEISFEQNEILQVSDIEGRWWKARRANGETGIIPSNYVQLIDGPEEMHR
Bem1-1, P29366, sequence (P29366 55-141): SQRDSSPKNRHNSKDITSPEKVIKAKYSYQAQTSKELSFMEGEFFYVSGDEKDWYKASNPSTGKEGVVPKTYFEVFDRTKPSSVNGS

B1: unnamed (peptide)
chain: DRIRMFIRFPKFLLE
- SPOT intensity [1]: 20
- SPOT intensity [2]: 71
- SPOT intensity [3]: 0
- SPOT intensity [4]: 0
- SPOT intensity [5]: 8
- SPOT intensity [6]: 2
- SPOT intensity [7]: 108
- SPOT intensity [8]: 0
- SPOT intensity [9]: 7
- SPOT intensity [10]: 0
- SPOT intensity [11]: 77
- SPOT intensity [12]: 4
- SPOT intensity [13]: 3
- SPOT intensity [14]: 0
- SPOT intensity [15]: 0
- SPOT intensity [16]: 6
- SPOT intensity [17]: 17
- SPOT intensity [18]: 52
- SPOT intensity [19]: 24
- SPOT intensity [20]: 39
- SPOT intensity [21]: 30
- SPOT intensity [22]: 43
- SPOT intensity [23]: 21
- SPOT intensity [24]: 2
- SPOT intensity [25]: 18
- SPOT intensity [26]: 7
- SPOT intensity [27]: 38

B2: unnamed (peptide)
chain: KMSRSPPRPPSLKII
- SPOT intensity [1]: 567
- SPOT intensity [2]: 55
- SPOT intensity [3]: 0
- SPOT intensity [4]: 2
- SPOT intensity [5]: 5
- SPOT intensity [6]: 64
- SPOT intensity [7]: 326
- SPOT intensity [8]: 1
- SPOT intensity [9]: 88
- SPOT intensity [10]: 67
- SPOT intensity [11]: 9
- SPOT intensity [12]: 140
- SPOT intensity [13]: 0
- SPOT intensity [14]: 8
- SPOT intensity [15]: 350
- SPOT intensity [16]: 54
- SPOT intensity [17]: 14
- SPOT intensity [18]: 513
- SPOT intensity [19]: 88
- SPOT intensity [20]: 0
- SPOT intensity [21]: 69
- SPOT intensity [22]: 98
- SPOT intensity [23]: 0
- SPOT intensity [24]: 0
- SPOT intensity [25]: 81
- SPOT intensity [26]: 0
- SPOT intensity [27]: 124

B3: unnamed (peptide)
chain: LKVTPGRRAPTISKI
- SPOT intensity [1]: 3
- SPOT intensity [2]: 72
- SPOT intensity [3]: 1
- SPOT intensity [4]: 0
- SPOT intensity [5]: 8
- SPOT intensity [6]: 6
- SPOT intensity [7]: 83
- SPOT intensity [8]: 0
- SPOT intensity [9]: 7
- SPOT intensity [10]: 0
- SPOT intensity [11]: 13
- SPOT intensity [12]: 0
- SPOT intensity [13]: 2
- SPOT intensity [14]: 0
- SPOT intensity [15]: 1
- SPOT intensity [16]: 0
- SPOT intensity [17]: 0
- SPOT intensity [18]: 85
- SPOT intensity [19]: 6
- SPOT intensity [20]: 0
- SPOT intensity [21]: 14
- SPOT intensity [22]: 17
- SPOT intensity [23]: 0
- SPOT intensity [24]: 1
- SPOT intensity [25]: 80
- SPOT intensity [26]: 0
- SPOT intensity [27]: 3

B4: unnamed (peptide)
chain: NLPKRKPPKLQGPFS
- SPOT intensity [1]: 81
- SPOT intensity [2]: 121
- SPOT intensity [3]: 0
- SPOT intensity [4]: 9
- SPOT intensity [5]: 12
- SPOT intensity [6]: 3
- SPOT intensity [7]: 202
- SPOT intensity [8]: 1
- SPOT intensity [9]: 20
- SPOT intensity [10]: 0
- SPOT intensity [11]: 53
- SPOT intensity [12]: 0
- SPOT intensity [13]: 1
- SPOT intensity [14]: 1
- SPOT intensity [15]: 49
- SPOT intensity [16]: 4
- SPOT intensity [17]: 440
- SPOT intensity [18]: 56
- SPOT intensity [19]: 213
- SPOT intensity [20]: 6
- SPOT intensity [21]: 6
- SPOT intensity [22]: 31
- SPOT intensity [23]: 24
- SPOT intensity [24]: 1
- SPOT intensity [25]: 42
- SPOT intensity [26]: 2
- SPOT intensity [27]: 11
